Laboratory results from patent US20140295452A1 (PIERRE FABRE MEDICAMENT, published 2014).

Tests used:
[1] = biological target: recombinant human c-Met-Fc protein (R&D Systems, cat. 358MT) (human) (UniProt P08581); test: displacement of [125I]-HGF (200 pM) from c-Met-Fc immobilized on protein A FlashPlate
[2] = biological target: T1, recombinant human c-Met-Fc protein (R&D Systems, cat. 358MT) (human, UniProt P08581 25-932); test: as above
T1 construct: extracellular domain; Bought reagent (R&D Systems 358MT / 358-MT/CF); also called rh c-Met-Fc; HGF-R/Fc chimera protein; not shown: Fc part; polyhistidine tag implied by capture on an anti-polyhistidine Mab; not described
T1 sequence (P08581 25-932): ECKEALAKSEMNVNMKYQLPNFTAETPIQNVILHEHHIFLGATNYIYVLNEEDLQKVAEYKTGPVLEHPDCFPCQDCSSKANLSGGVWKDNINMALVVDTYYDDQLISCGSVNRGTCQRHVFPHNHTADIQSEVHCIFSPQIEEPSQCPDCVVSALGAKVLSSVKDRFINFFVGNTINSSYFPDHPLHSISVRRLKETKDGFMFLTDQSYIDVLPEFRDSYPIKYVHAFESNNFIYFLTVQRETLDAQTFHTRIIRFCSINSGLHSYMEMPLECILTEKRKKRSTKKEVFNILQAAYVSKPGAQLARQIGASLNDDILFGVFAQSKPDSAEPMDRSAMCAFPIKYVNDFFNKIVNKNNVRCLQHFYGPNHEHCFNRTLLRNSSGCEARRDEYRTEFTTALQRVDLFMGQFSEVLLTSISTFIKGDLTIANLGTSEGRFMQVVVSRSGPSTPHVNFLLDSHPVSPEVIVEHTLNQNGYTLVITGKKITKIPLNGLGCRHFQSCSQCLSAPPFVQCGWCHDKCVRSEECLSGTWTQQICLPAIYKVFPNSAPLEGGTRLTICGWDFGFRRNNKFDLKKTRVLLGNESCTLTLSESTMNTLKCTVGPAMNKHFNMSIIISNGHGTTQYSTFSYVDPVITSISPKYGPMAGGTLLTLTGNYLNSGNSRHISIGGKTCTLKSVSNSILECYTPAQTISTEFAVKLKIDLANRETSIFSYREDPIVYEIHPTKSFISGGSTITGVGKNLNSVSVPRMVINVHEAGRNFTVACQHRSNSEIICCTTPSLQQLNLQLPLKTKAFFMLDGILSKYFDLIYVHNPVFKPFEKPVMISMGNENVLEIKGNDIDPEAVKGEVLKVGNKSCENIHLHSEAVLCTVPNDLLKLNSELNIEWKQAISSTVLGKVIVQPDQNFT

[3] = biological target: T1, recombinant human c-Met-Fc protein (R&D …); test: Biacore, c-Met-Fc captured by anti-polyhistidine Mab, 224D10 injected second at 20 µg/ml
[4] = biological target: T2, human c-Met receptor, native, on tumor cells and tumor tissue (human, UniProt P08581 25-1390); test: IHC on paraffin-embedded human breast and stomach tumor tissues
T2 construct: whole, on cells; Endogenous c-Met of human tumor cell lines, U87-MG xenografts and human tumor tissues; also called native c-Met; native receptor on tumor cells
T2 sequence (P08581 25-1390): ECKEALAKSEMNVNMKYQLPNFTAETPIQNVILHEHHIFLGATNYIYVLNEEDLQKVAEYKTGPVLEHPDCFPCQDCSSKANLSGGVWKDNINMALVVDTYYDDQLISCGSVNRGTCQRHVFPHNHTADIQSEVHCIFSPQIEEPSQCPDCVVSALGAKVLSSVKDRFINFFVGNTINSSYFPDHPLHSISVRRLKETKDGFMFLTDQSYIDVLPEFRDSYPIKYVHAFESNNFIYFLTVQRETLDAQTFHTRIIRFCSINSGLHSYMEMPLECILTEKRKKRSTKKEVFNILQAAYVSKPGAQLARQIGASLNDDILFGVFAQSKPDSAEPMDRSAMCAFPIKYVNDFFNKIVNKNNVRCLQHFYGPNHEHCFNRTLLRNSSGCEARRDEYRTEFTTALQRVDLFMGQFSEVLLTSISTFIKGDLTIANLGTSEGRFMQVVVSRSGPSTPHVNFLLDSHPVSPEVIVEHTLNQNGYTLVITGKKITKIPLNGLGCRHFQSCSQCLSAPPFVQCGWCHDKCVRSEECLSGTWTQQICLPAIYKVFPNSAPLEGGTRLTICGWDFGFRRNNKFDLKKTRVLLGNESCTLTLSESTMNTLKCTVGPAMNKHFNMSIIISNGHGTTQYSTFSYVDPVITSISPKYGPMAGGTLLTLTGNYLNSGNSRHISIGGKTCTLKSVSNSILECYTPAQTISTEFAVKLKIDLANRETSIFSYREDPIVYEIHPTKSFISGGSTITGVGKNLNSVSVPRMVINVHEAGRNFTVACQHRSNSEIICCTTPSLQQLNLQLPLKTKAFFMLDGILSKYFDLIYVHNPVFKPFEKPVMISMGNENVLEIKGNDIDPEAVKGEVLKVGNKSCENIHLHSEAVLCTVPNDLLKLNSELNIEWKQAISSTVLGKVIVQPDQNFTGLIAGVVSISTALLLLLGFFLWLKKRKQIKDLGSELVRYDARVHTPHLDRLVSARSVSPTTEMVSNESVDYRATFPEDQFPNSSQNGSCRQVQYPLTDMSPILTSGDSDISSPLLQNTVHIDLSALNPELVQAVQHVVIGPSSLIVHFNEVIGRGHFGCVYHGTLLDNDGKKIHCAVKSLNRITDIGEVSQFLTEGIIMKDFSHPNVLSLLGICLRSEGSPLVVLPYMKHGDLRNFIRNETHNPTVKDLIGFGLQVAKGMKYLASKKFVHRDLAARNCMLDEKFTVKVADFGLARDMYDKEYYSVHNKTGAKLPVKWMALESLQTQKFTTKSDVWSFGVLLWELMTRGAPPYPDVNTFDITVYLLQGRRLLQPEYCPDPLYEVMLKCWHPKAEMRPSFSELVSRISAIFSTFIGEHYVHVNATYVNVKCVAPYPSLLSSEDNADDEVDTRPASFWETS

Chain of recombinant human c-Met-Fc protein (R&D Systems, cat. 358MT) (human) (P08581 25-932): as the sequence (P08581 25-932) above

“5D5 anti-c-Met Mab (Genentech, hybridoma at the ATCC) (antibody)” was tested, and the IC50 [1] was 4.4 nM.

B1: 11E1 anti-c-Met Mab (antibody, V domains shown)
VH: QVQLQQSGAELAKPGASVKMSCKASGYTFTSYWMNWVKQRPGQGLEWIGYINPTTGSTDYNQKLKDKATLTADKSSNTAYMQLSSLTSEDSAVYYCAIGGYGSWFAYWGQGTLVTVSA
VL: QIVLTQSPAIMSASPGEKVTLTCSASSSVSSTYLYWYQQKPGSSPKLWIYTTSILASGVPARFSGSGSGTSYSLTISSMETEDAASYFCHQWSSYPFTFGSGTKLDIK
B1 was tested, and the IC50 [2] was 42 nM.

B2: murine 224D10 monoclonal antibody (antibody, V domains shown)
VH: DLQLQESGPGLVKPSQSLSLTCSVTGYSITSAYFWSWIRQFPGNKLEWMGFINYDGTNNYNPSLKNRISITRDTSKNQFFLRLNSVTTDDTATYYCTRDRTFAYWGQGTLVTVSA
VL: DIVLTQSPATLSVTPGDRVSLSCRASQRIYNYLHWYQQKSHESPRLLIKYASQSISGIPSRFSGSGSGTDFILTINSVETEDFGMYFCQQSNSWPLTFGAGTKLELR
notes: Whole murine monoclonal antibody secreted by hybridoma CNCM I-3949; a murine IgG1 (9G4) served as its isotype control; also called m224D10; 224D10 Mab
B2: binds [3]; binds [4].
